Measured values taken from patent publication US20220010021A1.
Ends that are not written are not given here.

B1: Ab0370 (antibody, IgG4, V domains shown)
VH: QVTLKESGPVLVKPTETLTLTCTVSGFSLNNARVGVSWIRQPPGKALEWLAWIFSNDEKSYSTSLKSRLTISKDTSKSQVVLTMTNMDPVDTATYYCARSVVTGGYYYEGMDVWGQGTTVTVSS
VL: SYVLTQPPSVSVAPGQTARITCGGNNIGSESVHWYQQKPGQAPVLVVDDSDRPSGIPERFSGSNSGNTATLTISRVEAGDEADYYCQVHDGNSDHVVFGGGTKLTVLG

Target: human GIP receptor (human) (UniProt P48546)
Assay: cell-based or functional assay

human GIP receptor (human), sequence (P48546 22-466): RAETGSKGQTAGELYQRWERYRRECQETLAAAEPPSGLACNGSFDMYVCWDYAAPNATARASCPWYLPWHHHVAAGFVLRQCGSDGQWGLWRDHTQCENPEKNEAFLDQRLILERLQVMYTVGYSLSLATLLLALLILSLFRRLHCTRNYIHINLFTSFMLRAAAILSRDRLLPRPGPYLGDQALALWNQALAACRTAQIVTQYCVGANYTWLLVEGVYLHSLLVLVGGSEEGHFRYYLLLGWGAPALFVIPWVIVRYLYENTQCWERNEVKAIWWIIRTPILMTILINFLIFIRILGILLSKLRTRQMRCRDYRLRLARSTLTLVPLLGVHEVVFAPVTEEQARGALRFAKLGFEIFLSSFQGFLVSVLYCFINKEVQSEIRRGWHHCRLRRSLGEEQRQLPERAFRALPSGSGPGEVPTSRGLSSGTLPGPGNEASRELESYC

| Binder | HTRF cAMP EC50 [nM] |
| --- | --- |
| GHGEGTFTSDKSKQLEEEAVRLFIEWLKAGGPKKIRYS-NH2 [P014] | > 10 |
| HGEGTFTSDLSKQLEEERVQLFIEWLKATGPSSGAPPPS-NH2 [P008] | > 10 |
| GHGEGTFTSDKSKQLEEEAVRLFIEWLKAGGPSSGAPPPS-NH2 [P021] | > 10 |
| GHGEGTFTSDLSKQLEEEAVRLFIEWLKAGGPKKIRYS-NH2 [P013] | > 10 |
| GHGEGTFTSDLSKQLEEEAVRLFIEWLKAGGPSSGAPPPS-NH2 [P017] | > 10 |

Target: human GLP-1 receptor (human) (UniProt P43220)
Sequence (P43220 24-463): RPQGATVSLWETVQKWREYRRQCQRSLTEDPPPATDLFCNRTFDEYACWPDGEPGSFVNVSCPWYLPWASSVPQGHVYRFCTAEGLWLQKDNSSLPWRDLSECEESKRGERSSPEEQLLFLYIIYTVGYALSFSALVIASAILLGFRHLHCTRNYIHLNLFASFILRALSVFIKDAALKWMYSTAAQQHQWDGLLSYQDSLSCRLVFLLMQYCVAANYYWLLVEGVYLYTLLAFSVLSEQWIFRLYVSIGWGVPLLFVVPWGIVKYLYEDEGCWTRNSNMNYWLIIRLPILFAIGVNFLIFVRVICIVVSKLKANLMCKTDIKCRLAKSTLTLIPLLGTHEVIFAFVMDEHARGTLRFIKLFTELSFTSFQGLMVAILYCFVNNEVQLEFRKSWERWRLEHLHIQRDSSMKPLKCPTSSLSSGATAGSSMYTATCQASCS
Assay: cell-based or functional assay

| Binder | HTRF cAMP EC50 [nM] |
| --- | --- |
| GHGEGTFTSDLSIQLEEEAVRLFIEWLLAGGPSSGAPPPS-NH2 [P019] | 0.0276 |
| GHGEGTFTSDLSIQLEEEAVRLFIEWLLATGPSSGAPPPS-NH2 [P020] | 0.206 |
| GHGEGTFTSDKSKQLEEEAVRLFIEWLKAGGPKKIRYS-NH2 [P014] | 0.0105 |
| HGEGTFTSDLSKQLEEERVQLFIEWLKATGPSSGAPPPS-NH2 [P008] | 0.0232 |
| HGEGTFTSDLSKQLEEEAVQLFIEWLLATGPSSGAPPPS-NH2 [P010] | 0.0035 |
| GHGEGTFTSDKSKQLEEEAVRLFIEWLKAGGPSSGAPPPS-NH2 [P021] | 0.0276 |
| GHGEGTFTSDLSKQLEEEAVRLFIEWLKAGGPKKIRYS-NH2 [P013] | 0.0099 |
| GHGEGTFTSDLSKQLEEEAVRLFIEWLKAGGPSSGAPPPS-NH2 [P017] | 0.0085 |

Target: human glucagon receptor (human) (UniProt P47871)
Sequence (P47871 26-477): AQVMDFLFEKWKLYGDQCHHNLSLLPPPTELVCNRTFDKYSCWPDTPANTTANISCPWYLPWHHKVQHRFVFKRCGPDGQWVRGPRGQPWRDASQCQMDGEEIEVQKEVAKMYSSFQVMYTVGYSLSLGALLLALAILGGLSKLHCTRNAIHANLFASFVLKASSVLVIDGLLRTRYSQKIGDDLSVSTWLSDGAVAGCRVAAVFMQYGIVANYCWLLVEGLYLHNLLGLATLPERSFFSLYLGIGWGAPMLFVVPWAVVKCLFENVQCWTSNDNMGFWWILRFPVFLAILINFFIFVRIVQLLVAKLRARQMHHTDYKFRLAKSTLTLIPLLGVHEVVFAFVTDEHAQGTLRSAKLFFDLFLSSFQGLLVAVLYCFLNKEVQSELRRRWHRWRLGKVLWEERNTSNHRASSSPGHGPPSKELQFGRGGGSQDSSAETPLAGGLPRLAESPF
Assay: cell-based or functional assay

| Binder | HTRF cAMP EC50 [nM] |
| --- | --- |
| GHGEGTFTSDKSKQLEEEAVRLFIEWLKAGGPKKIRYS-NH2 [P014] | 5.4 |
| HGEGTFTSDLSKQLEEERVQLFIEWLKATGPSSGAPPPS-NH2 [P008] | > 10 |
| GHGEGTFTSDKSKQLEEEAVRLFIEWLKAGGPSSGAPPPS-NH2 [P021] | > 10 |
| GHGEGTFTSDLSKQLEEEAVRLFIEWLKAGGPKKIRYS-NH2 [P013] | > 10 |
| GHGEGTFTSDLSKQLEEEAVRLFIEWLKAGGPSSGAPPPS-NH2 [P017] | > 10 |

Target: human FGFR1c + KLB receptor complex on HEK293 iLite FGF21 reporter cells (human) (UniProt P11362)
Sequence (P11362 22-822, chain 1 of 2): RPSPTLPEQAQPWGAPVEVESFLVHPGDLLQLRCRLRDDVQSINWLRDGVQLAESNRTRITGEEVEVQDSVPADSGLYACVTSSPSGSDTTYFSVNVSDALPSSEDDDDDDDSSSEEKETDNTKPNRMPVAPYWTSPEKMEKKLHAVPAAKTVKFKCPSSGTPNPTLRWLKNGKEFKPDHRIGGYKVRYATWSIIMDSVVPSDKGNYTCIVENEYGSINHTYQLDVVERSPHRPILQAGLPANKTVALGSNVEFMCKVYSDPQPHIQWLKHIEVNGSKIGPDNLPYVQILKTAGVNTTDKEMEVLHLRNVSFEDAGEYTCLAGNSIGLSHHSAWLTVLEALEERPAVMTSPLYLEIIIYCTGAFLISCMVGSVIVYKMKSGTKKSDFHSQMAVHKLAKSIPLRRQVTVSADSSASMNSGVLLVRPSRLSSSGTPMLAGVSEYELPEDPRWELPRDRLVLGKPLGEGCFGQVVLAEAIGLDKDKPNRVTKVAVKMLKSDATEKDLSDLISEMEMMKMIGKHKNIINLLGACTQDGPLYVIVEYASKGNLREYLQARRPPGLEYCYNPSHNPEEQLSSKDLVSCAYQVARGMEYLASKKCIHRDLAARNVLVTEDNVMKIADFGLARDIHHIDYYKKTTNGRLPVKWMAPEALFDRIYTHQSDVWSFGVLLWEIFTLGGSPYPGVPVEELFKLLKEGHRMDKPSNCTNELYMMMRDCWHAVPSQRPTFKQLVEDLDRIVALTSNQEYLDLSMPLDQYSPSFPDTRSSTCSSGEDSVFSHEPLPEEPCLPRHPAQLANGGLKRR
Sequence (Q86Z14 whole entry, chain 2 of 2, further chain): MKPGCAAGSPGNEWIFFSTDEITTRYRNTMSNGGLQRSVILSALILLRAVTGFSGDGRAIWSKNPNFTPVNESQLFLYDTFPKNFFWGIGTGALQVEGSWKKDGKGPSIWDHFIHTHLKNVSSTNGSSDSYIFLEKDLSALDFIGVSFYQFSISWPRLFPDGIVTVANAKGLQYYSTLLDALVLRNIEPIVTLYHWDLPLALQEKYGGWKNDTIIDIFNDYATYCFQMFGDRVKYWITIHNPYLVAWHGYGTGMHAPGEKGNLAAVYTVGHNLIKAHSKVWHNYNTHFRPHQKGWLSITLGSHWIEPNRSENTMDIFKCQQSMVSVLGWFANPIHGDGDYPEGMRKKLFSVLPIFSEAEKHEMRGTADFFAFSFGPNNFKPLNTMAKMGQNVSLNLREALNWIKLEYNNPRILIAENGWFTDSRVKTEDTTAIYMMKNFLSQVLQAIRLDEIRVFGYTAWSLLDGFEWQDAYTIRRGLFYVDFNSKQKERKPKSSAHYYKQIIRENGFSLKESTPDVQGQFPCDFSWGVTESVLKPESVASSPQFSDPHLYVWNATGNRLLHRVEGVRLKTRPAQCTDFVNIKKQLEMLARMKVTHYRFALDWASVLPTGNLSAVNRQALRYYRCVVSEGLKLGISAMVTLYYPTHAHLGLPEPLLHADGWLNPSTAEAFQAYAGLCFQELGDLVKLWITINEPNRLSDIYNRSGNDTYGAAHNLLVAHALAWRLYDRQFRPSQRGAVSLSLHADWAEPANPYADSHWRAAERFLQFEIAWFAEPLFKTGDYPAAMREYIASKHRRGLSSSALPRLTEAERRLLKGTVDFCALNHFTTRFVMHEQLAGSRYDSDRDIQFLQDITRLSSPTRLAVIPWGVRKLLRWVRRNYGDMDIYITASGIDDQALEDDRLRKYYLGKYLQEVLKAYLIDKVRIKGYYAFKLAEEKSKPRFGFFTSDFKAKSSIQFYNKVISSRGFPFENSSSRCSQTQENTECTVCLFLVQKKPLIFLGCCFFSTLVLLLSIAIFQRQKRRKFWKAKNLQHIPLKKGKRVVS
Assay: cell-based or functional assay

| Binder | EC50 [nM] | Emax [%] |
| --- | --- | --- |
| B1 | > 100 | 490 |
